Patent publication US20260070976A1 (Alector, published 2026)

What was measured:
recombinant human PILRB = recombinant human PILRB (human, UniProt Q9UKJ0 20-191); experiment: SPR, Carterra LSA, steady-state fit
Experimental: (§1) Binding kinetics of human anti-PILRA-IgG4 antibodies were evaluated by surface plasmon resonance (SPR) using a Carterra LSA instrument (Carterra, Salt Lake City, UT). Antibodies were immobilized in duplicate arrays onto an HC30M sensor chip (Carterra) by amine coupling according to the manufacturer's protocol. After priming the immobilized antibodies with HBS-EP+ (Teknova, Hollister, CA, #8022) running buffer with 0.5 mg/mL BSA (MP Biomedicals LLC, #820451), the immobilized antibodies were tested for their ability to bind to recombinant human PILRA (SEQ ID NO:1) and cynomolgus PILRA (SEQ ID NO:120) and to human PILRB (SEQ ID NO:105) and cynomolgus PILRB (SEQ ID NO:121).
(§2) For binding kinetics analysis, human and cynomolgus PILRA and PILRB analytes were diluted in running buffer to 440 to 470 nM, and diluted 3-fold serially five times, to 1.8 to 1.9 nM, and injected for five minutes over the entire chip using the single channel flow cell to measure association of binding to the immobilized antibodies. Dissociation of the analytes was measured for five minutes, followed by regeneration of the chip with two 30-second injections of 10 mM glycine pH 2.0.
For the human PILRB interactions, the binding was too weak and heterogenous for kinetic constants to be calculated in this assay. Therefore, steady-state affinities were estimated based on the binding level of each analyte concentration at the end of the injections.

recombinant human PILRA = recombinant human PILRA (human, UniProt Q9UKJ1 20-197); experiment: SPR, Carterra LSA, antibody amine-coupled, kinetic fit
Experimental: as §1, §2

[1] = target: T1, recombinant cynomolgus PILRA (SEQ ID NO:120) (cynomolgus monkey); experiment: as above
T1 construct: also called cyno PILRA
Experimental: as §1, §2

T1 sequence (chain, as listed by the source limits assumed): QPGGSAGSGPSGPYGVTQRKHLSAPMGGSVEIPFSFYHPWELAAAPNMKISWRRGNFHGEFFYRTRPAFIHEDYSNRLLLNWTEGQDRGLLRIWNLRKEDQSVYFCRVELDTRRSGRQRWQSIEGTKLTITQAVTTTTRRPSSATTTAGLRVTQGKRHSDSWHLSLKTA
recombinant human PILRB, sequence (Q9UKJ0 20-191 limits assumed): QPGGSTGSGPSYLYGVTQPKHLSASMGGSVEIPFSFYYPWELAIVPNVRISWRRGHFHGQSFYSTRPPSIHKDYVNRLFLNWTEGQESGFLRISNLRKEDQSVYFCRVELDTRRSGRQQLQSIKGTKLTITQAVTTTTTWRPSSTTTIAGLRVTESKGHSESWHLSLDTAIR
recombinant human PILRA, sequence (Q9UKJ1 20-197 limits assumed): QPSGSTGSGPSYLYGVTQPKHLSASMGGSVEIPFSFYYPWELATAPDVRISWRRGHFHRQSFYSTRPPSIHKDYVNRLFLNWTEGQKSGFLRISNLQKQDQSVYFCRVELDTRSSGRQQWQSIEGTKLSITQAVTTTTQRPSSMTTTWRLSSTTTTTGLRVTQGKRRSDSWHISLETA

Binder	Kd (recombinant human PILRB)	Kd (recombinant human PILRA)	Kd [1]
X4 (antibody, human IgG4, V domains shown) VH: QVQLVQSGAEVKKPGSSVKVSCKASGYNFLNYDVNWVRQAPGQGLEWMGGIIPIFGTANYAQKFQGRVTITADESTSTAYMELSSLRSEDTAVYYCATGVGAGWFDPWGQGTLVTVSS VL: DIVMTQSPDSLAVSLGERATINCKSSQSVYFSPNNKNYLAWYQQKPGQPPKLLIYWASTRESGVPDRFSGSGSGTDFTLTISSLQAEDVAVYYCQQYFEEPYTFGQGTRLEIK	138 nM	12 nM	0.2 nM
X5 (antibody, human IgG4, V domains shown) VH: QVQLVQSGAEVKKPGSSVKVSCKASGYNFLNYDVNWVRQAPGQGLEWMGGIIPIFGTANYAQKFQGRVTITADESTSTAYMELSSLRSEDTAVYYCATGVGAGWFDPWGQGTLVTVSS VL: DIVMTQSPDSLAVSLGERATINCKSSQSVFFDVNNKNYLAWYQQKPGQPPKLLIYWASTRESGVPDRFSGSGSGTDFTLTISSLQAEDVAVYYCQQYFEEPYTFGQGTRLEIK	35 nM	2.4 nM	0.1 nM
X6 (antibody, human IgG4, V domains shown) VH: QVQLVQSGAEVKKPGSSVKVSCKASGYNFLNYDVNWVRQAPGQGLEWMGGIIPIFGTANYAQKFQGRVTITADESTSTAYMELSSLRSEDTAVYYCATGVGAGWFDPWGQGTLVTVSS VL: DIVMTQSPDSLAVSLGERATINCKSSQSVYFDVNNKNYLAWYQQKPGQPPKLLIYWASTRESGVPDRFSGSGSGTDFTLTISSLQAEDVAVYYCQQYFEEPYTFGQGTRLEIK	35 nM	3.1 nM	0.1 nM
X9 (antibody, human IgG4, V domains shown) VH: QVQLVQSGAEVKKPGSSVKVSCKASGYNFLNYDVNWVRQAPGQGLEWMGGIIPIFGTANYAQKFQGRVTITADESTSTAYMELSSLRSEDTAVYYCATGVGAGWFDPWGQGTLVTVSS VL: DIVMTQSPDSLAVSLGERATINCKSSQSVFFDVNNKNYLAWYQQKPGQPPKLLIYWASTRESGVPDRFSGSGSGTDFTLTISSLQAEDVAVYYCQQYYEEPYTFGQGTRLEIK	39 nM	2.8 nM	0.1 nM
X10 (antibody, human IgG4, V domains shown) VH: QVQLVQSGAEVKKPGSSVKVSCKASGYNFLNYDVNWVRQAPGQGLEWMGGIIPIFGTANYAQKFQGRVTITADESTSTAYMELSSLRSEDTAVYYCATGVGAGWFDPWGQGTLVTVSS VL: DIVMTQSPDSLAVSLGERATINCKSSQSVFFDENNKNYLAWYQQKPGQPPKLLIYWASTRESGVPDRFSGSGSGTDFTLTISSLQAEDVAVYYCQQYYEEPYTFGQGTRLEIK	68 nM	3.2 nM	0.3 nM
X15 (antibody, human IgG4, V domains shown) VH: QVQLVQSGAEVKKPGSSVKVSCKASGYNFLHYDVNWVRQAPGQGLEWMGGIIPIFGTANYAQKFQGRVTITADESTSTAYMELSSLRSEDTAVYYCATAVGAGWFDTWGQGTLVTVSS VL: DIVMTQSPDSLAVSLGERATINCKSSQSVFFDVNNKNYLAWYQQKPGQPPKLLIYWASTRESGVPDRFSGSGSGTDFTLTISSLQAEDVAVYYCQQYFEEPYTFGQGTRLEIK	2 nM	0.1 nM	0.1 nM
X17 (antibody, human IgG4, V domains shown) VH: QVQLVQSGAEVKKPGSSVKVSCKASGYNFLHYDVNWVRQAPGQGLEWMGGIIPIFGTANYAQKFQGRVTITADESTSTAYMELSSLRSEDTAVYYCATAVGAGWFDTWGQGTLVTVSS VL: DIVMTQSPDSLAVSLGERATINCKSSQSVFFDENNKNYLAWYQQKPGQPPKLLIYWASTRESGVPDRFSGSGSGTDFTLTISSLQAEDVAVYYCQQYFEEPYTFGQGTRLEIK	2 nM	0.4 nM	0.1 nM
X19 (antibody, human IgG4, V domains shown) VH: QVQLVQSGAEVKKPGSSVKVSCKASGYNFLHYDVNWVRQAPGQGLEWMGGIIPIFGTANYAQKFQGRVTITADESTSTAYMELSSLRSEDTAVYYCATAVGAGWFDPWGQGTLVTVSS VL: DIVMTQSPDSLAVSLGERATINCKSSQSVFFDENNKNYLAWYQQKPGQPPKLLIYWASTRESGVPDRFSGSGSGTDFTLTISSLQAEDVAVYYCQQYYEEPYTFGQGTRLEIK	2 nM	0.3 nM	0.1 nM
X23 (antibody, human IgG4, V domains shown) VH: QVQLVQSGAEVKKPGSSVKVSCKASGYNFLHYDVNWVRQAPGQGLEWMGGIIPIFGTANYAQKFQGRVTITADESTSTAYMELSSLRSEDTAVYYCATGVGAGWFDPWGQGTLVTVSS VL: not shown	35 nM	3.9 nM	0.3 nM
X24 (antibody, human IgG4, V domains shown) VH: QVQLVQSGAEVKKPGSSVKVSCKASGYNFLHYDVNWVRQAPGQGLEWMGGIIPIFGTANYAQKFQGRVTITADESTSTAYMELSSLRSEDTAVYYCATGVGAGWFDPWGQGTLVTVSS VL: not shown	16 nM	1.7 nM	0.2 nM
X25 (antibody, human IgG4, V domains shown) VH: QVQLVQSGAEVKKPGSSVKVSCKASGYNFLNYDVNWVRQAPGQGLEWMGGIIPIFGTANYAQKFQGRVTITADESTSTAYMELSSLRSEDTAVYYCATAVGAGWFDPWGQGTLVTVSS VL: not shown	211 nM	7 nM	0.3 nM
X26 (antibody, human IgG4, V domains shown) VH: QVQLVQSGAEVKKPGSSVKVSCKASGYNFLNYDVNWVRQAPGQGLEWMGGIIPIFGTANYAQKFQGRVTITADESTSTAYMELSSLRSEDTAVYYCATAVGAGWFDPWGQGTLVTVSS VL: not shown	199 nM	8.1 nM	0.3 nM
X27 (antibody, human IgG4, V domains shown) VH: QVQLVQSGAEVKKPGSSVKVSCKASGYNFLNYDVNWVRQAPGQGLEWMGGIIPIFGTANYAQKFQGRVTITADESTSTAYMELSSLRSEDTAVYYCATAVGAGWFDPWGQGTLVTVSS VL: not shown	87 nM	13 nM	0.5 nM
X28 (antibody, human IgG4, V domains shown) VH: QVQLVQSGAEVKKPGSSVKVSCKASGYNFLNYDVNWVRQAPGQGLEWMGGIIPIFGTANYAQKFQGRVTITADESTSTAYMELSSLRSEDTAVYYCATAVGAGWFDPWGQGTLVTVSS VL: not shown	33 nM	3.8 nM	0.3 nM
X30 (antibody, human IgG4, V domains shown) VH: QVQLVQSGAEVKKPGSSVKVSCKASGYNFLNYDVNWVRQAPGQGLEWMGGIIPIFGTANYAQKFQGRVTITADESTSTAYMELSSLRSEDTAVYYCATGVGAGWFDPWGQGTLVTVSS VL: DIVMTQSPDSLAVSLGERATINCKSSQSVYFDVNNKNYLAWYQQKPGQPPKLLIYWASTRESGVPDRFSGSGSGTDFTLTISSLQAEDVAVYYCQQYYEEPYTFGQGTRLEIK	43 nM	3.3 nM	0.1 nM
X31 (antibody, human IgG4, V domains shown) VH: QVQLVQSGAEVKKPGSSVKVSCKASGYNFLNYDVNWVRQAPGQGLEWMGGIIPIFGTANYAQKFQGRVTITADESTSTAYMELSSLRSEDTAVYYCATGVGAGWFDPWGQGTLVTVSS VL: not shown	38 nM	2.2 nM	0.1 nM
X32 (antibody, human IgG4, V domains shown) VH: QVQLVQSGAEVKKPGSSVKVSCKASGYNFLHYDVNWVRQAPGQGLEWMGGIIPIFGTANYAQKFQGRVTITADESTSTAYMELSSLRSEDTAVYYCATAVGAGWFDPWGQGTLVTVSS VL: DIVMTQSPDSLAVSLGERATINCKSSQSVFFDVNNKNYLAWYQQKPGQPPKLLIYWASTRESGVPDRFSGSGSGTDFTLTISSLQAEDVAVYYCQQYYEEPYTFGQGTRLEIK	2 nM	0.1 nM	0.1 nM
X33 (antibody, human IgG4, V domains shown) VH: QVQLVQSGAEVKKPGSSVKVSCKASGYNFLHYDVNWVRQAPGQGLEWMGGIIPIFGTANYAQKFQGRVTITADESTSTAYMELSSLRSEDTAVYYCATAVGAGWFDPWGQGTLVTVSS VL: not shown	2 nM	0.6 nM	0.1 nM
